According to patent US20030149244A1:

Experiments:
[1] = target: FcεRI-bound human IgE (IgE loaded on CHO 3D10 cells expressing the FcεRI alpha chain) (human) (UniProt P01854); assay: FACS on IgE-loaded CHO 3D10 cells (FIG. 4), arithmetic/linear scale
[2] = target: FcεRI-bound human IgE (IgE loaded on CHO 3D10 cells expressing the FcεRI alpha chain) (human) (UniProt P01854); assay: FACS on IgE-loaded CHO 3D10 cells (FIG. 4); called nonspecific by the filing

Chain of FcεRI-bound human IgE (IgE loaded on CHO 3D10 cells expressing the FcεRI alpha chain) (human) (P01854 whole entry, chain 1 of 2): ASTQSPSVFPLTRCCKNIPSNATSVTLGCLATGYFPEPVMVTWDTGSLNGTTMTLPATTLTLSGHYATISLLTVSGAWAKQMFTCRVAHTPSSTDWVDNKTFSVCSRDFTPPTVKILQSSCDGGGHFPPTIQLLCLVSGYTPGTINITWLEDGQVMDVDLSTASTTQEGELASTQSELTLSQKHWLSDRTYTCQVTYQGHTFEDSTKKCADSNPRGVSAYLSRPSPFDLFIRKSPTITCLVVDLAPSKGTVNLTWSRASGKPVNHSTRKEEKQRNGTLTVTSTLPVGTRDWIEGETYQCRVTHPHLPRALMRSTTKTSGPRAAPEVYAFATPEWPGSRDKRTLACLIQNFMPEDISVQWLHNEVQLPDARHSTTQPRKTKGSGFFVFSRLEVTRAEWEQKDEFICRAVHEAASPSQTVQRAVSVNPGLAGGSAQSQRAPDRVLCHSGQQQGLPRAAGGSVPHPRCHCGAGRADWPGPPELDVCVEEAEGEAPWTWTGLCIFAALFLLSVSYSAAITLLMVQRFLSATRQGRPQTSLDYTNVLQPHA
Chain of FcεRI-bound human IgE (IgE loaded on CHO 3D10 cells expressing the FcεRI alpha chain) (human) (P12319 26-257, chain 2 of 2, further chain): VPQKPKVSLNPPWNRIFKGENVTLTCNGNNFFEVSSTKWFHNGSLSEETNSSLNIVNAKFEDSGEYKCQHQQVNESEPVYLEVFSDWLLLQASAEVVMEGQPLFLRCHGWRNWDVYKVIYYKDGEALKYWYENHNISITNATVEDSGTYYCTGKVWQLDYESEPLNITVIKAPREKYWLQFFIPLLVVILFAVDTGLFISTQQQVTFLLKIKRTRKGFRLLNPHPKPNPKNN

MOPC21 (antibody)
mean channel fluorescence at 0.1 µg/ml [1]: 7.3
nonspecific background binding (percent) [2]: 10%
